assay: label from the status in PepcDB records

Sequence | protein production
MDLRRRQWFLSAILLSAALLIDPQFSTAATASENLVFEVRSKFAGKRVKDLGALRAHDVHRHSRLLSAIDIPLGGDSQPESIGLYFAKIGLGTPSRDFHVQVDTGSDILWVNCAGCIRCPRKSDLVELTPYDVDASSTAKSVSCSDNFCSYVNQRSECHSGSTCQYVIMYGDGSSTNGYLVKDVVHLDLVTGNRQTGSTNGTIIFGCGSKQSGQLGESQAAVDGIMGFGQSNSSFISQLASQGKVKRSFAHCLDNNNGGGIFAIGEVVSPKVKTTPMLSKSAHYSVNLNAIEVGNSVLELSSNAFDSGDDKGVIIDSGTTLVYLPDAVYNPLLNEILASHPELTLHTVQESFTCFHYTDKLDRFPTVTFQFDKSVSLAVYPREYLFQVREDTWCFGWQNGGLQTKGGASLTILGDMALSNKLVVYDIENQVIGWTNHNCSGGIQVKDEESGAIYTVGAHNLSWSSSLAITKLLTLVSLLIPFFCNVAL | not failed
MDLSGVKKKSLLGVKENNKKSSTRAPSPTKRKDRSDEKSKDRSKDKGATKESSEKDRGRDKTRKRRSASSGSSSTRSRSSSTSSSGSSTSTGSSSGSSSSSASSRSGSSSTSRSSSSSSSSGSPSPSRRRHDNRRRSRSKSKPPKRDEKERKRRTLSPKPTKVHIGRLTRNVTKDHIMEIFSTYGKIKMIDMPVERMHPHLSKGYAYVEFENPDEAEXALKHMDGGQLMARDHCYCCVGTLASATTSRFSPPRRMLPPPPCGVGHPHG | not failed
MDLSSPSSFTATIDAPLRAAVFDSAVEAVLLVDPTLDQIVDANNAASALLGHDRDTLLQTRFSALHGAQLPALVVFTQAVFAKGTYWTHALTPLHADGTQLRLEYAGKLLPYRGRSLLLLTMSDLEQ | failed
MDNDKYLKGTTTVGVVCTDGIVLASEQRATMGHFIASKTAKKVYQIDDLVGMTTAGSVGDAQQLVRLVSVESQLYKMRRNESMTIKGIATLMSNFLNANRYYPMMVQLLIGGVDKNGPAIYSLDPMGGSIEETRISATGSGSPMAYGVLEDQYREDIAVKEGLDLAIRAIHNATKRDSASGENIDVVVITKEAFKRLDPEEVKSRRALLN | failed
MDNEMNYGSDYKFIPATSIESGHGIEVLRDLFCYTIQIVNICFVGNPETNDFVLVDAGMPKCANEIISIAKDRFGTNSRPKAIILTHGHFDHVGGIIELIKHWDVHVYAHQMEIPFLTGQQSYPEPDPTVEGGMVAKMSPLFPNEPIDLGNNVKALPTDGTVPHMPEFRWIHTPGHTPGHISLFREKDRTLIAGDAFVTVKQEYLYKVITQEQEISGPPRYLTTDWKAAKESVLKLEKLKPLTAVTGHGIPMSGELLSTSLKTLVQEFDKIAVPDYGKYIDKKMHLEHHHHHH | not failed
MDNKKLFVFIKYFTLVFMIVGIIFGGKEFNAQNITLMLILIINHQLRTFSLNKYIHKIISFILEIVLVVICNFWISGYLFTYLILLAIDANVMFKKFLASTFNVVIILIGVYFSFNYSLNYKIMNLGVSIIIIAVFYFNKYENEKKIEAQDLYDRLRISEEKLKKANRDLEMYASSVEELTLLRERNRISREIHDSVGHSLSTMVIQLGAIEKIIRKAPEKAELLTKNLRKFTQKSLDEVRAAVRAIKPKEFEEYEGILSIEELISNFKKMANIDVRLAFTKEKWSLNSDQSFVLYRIVQEFLSNSARHGRASRVDVIMAFSEKNLLVTLKDNGQGCQSIIEGVGMKSMRERVKELGGYFEYKTAPYEGFTVKIELAKREKLKVYSGGENNG | failed
MDNKVILVGGFHEIIELCEDNDIEIAGIIDNYLTNDTYWGYPIIGTDDKAKVLFETYKNVPVLITPDVPHVRYKLYHYYKSIGFQVASLISRDASISRSAIIGEGTIIQRGANLSSNIKIGQMVKVNTNANIMHDCLIGNYVTVAPNAVLLGKVEIDDKAYIGANATLLPSVKIGENVTVGAGSVVTKSVRPNTVVKGSPAK | failed
MDNLETDRLILINYTLEMIQATINGTEALEKTSGYHVSPDWPGIDFFFYLPYVLENVKKDDKMIKWTRLVVLKTENKIIGEIGGQGNPDETGEIEIGYSIVPDYQNKGYMSEALISMIDWLEHQPVINRIFARCYEQNEASIQVLKHNHFVH | failed
MDNPCPTCGQELEWTGQYHCSACTVDYCKVGFCPECGSELEKLQACGAANYFCNQCNELKSKSKIRFVFQPLNGNSQLEHHHHHH | not failed
MDNRNIDPYFNPEQFLETQKYKGTVTALIFLLLFFIFLMVAFKKAFFAQANMPNLVMSKQDTAARGTIYSQDNYSLATSQTLFKLGFDTRFLNPDKEDFFIDFLSIYSNIPKKSLKDAINTKGYIILAYDLTPNMAANIRDLNKKFLAFGVFQNFKDAHDKVWQKQGLNIEVSGVSRHYPYQNSLEPIIGYVQKQEEDKLTLTTGKKGVEKSQDHLLKAQQNGIRTGKRDVSFNFIQNHSYTEVERLDGYEVYLSVPLKLQREIETLLDKTKDKLKAKEILVGIINPKSGEILSLASSKRFNPNAIKTSDYESLNLSVAEKVFEPGSTIKPIVYSLLLDKNLINPKERIDLNHGYYQLGKYTIKDDFIPSKKAVVEDILIQSSNVGMIKISKNLNPKDFYNGLLGYGFSQKTGIDLSLEATGKIPPLSAFKREVLKGSVSYGYGLNATFLQLLRAYAVFSNEGKLTTPYLVQRETAPNGDIYIPSPKPTFQVISPKSARKMKETLIKVVRYGTGKNAQFEGLYIGGKTGTARVAKNGSYSAQSYNSSFFGFAEDERQVFTIGVVILGSHGKEEYYASKIAAPIFKEITEILVRYNYLSPSIAIQNALEKNRFKIK | failed
MDNTRSVYGIDLGTTYSCIAQVDKFDQAIVLRNFEGDATTPSAVYFEDMDHVVVGKEAKGMLATEPTKTAVFIKRHIGVDDSFDKNTNEFPYHYDPTEISAFILKKLVKDANDLGDNPEPIKDVVITCPAYFGTKERMQTKQAGEIAGLNVLSIINEPTAAAISYGVKTDQKKTVLVYDLGGGTFDVTLINVNGGAIKVIATGGDHHLGGVDWDTALAEYMLAAFNEQNNTSYSFEDRLDLKYELLLLAEDKKKVLTAKQTAKATYQYEGNSARIEISRELFNSLTERKLDETIDATKKVIAIAKEKGYNNIDEILLVGGSSRMPQIKERVDKEFNCDAKLTDPDECVAKGAAIYAMNAAYSQAVRDYEEGESDDKPAPLRGDRTTVVNVTSKTYGTDVIIEGQSMVQNLIFANSSLPTKRIETFTTSIPNQRGVSVKVFESDFTNMETESIVEERFCTLIDDHTLKLSKDWPQGTQISVTYQIDQEGILHGLAYVENDKLEFDLKITGVKCEEELRKSKAIIDKASVE | failed
MDPAMSFAEIFTVVVPVFLVIAVGYGTGRRALFDAGGAQALRELTMQLALPAALLLSIWQTPRRVLVEQLPLVGLLAFGLLGVYAVLLGVLRLAGRRPLRRAALFALACVQPQYAFMGTSILGGLFGTAQAAVPIAVAGILVNVVLDPVVLILLGMPEHPASRTAATAAAATSAVRRPALVTVGGGAPGESVEAAAPVAAGDASPEHRPSVLRTVGHALREPFCWGPVLGLILSVGGVGVPKVAGTSLTLLAGAASAAALLYVGVSVSRIGRPKLTPAVWAIALTSVVVLPLLVYGAGLAMASAADAAQAALIVAFPVSPVPLMFAARHGSKADVRTIGSAVVLSLLLSFVTLPLLIELIG | not failed
MDPEKGTIRLDFMHSLGTWMVPELIRTFRAEHPNVEFQLHQAAAMLLVDRVLADETDLALVGPKPAEVGTSLGWAPLLRQRLALAVPADHRLASFSGQGELPLITAAEEPFVAMRAGFGTRLLMDALAEEAGFVPNVVFESME | failed
MDPLLLIGAITAGGVLIGGGVHFVPVGGAPAAMATATGVGTGTAMLAAGAGLTGLITAAAMTGQSPLMIMAAGAVGSMLMIGITMLVGNLIYVYGVGTVPVSAKVAVDPLTGMEQEKYVTPGTEGHGLPTVCFVSGIIGGALGGIGGGLIYWALNEALKTLSYGAIGAAGVAAIFAVGIFFINAVIASYNIGGTIEGFHDPKFKRIGRGIVACLIASIVAGALSTLLVYGGVF | failed
MDPNTVSSFQVDCFLWHVRKRLADQELGDAPFLDRLRRDQKSLRGRGNTLGLDIETATRAGKQIVERILEEEPDEALKMPASRYLTDMTLEEMSRDWFMLMPKQKVAGSLCIKMDQAIMDKTIILKANFSVILDRLETLILLRAFTEEGAIVGEISPLPSLPGHTGEDVKNAIGVLIGGLEWNDNTVRVSETIQRFAWRSSDEDGRLPLPPNQKRKMARTIESEV | not failed
